Results reported in patent EP4596580A1 (Staidson (Beijing) Biopharmaceuticals Co., Ltd., dated 2025).
Read-outs that look alike come from different tables or passages of the source.

T1: His-cynomolgus monkey LIGHT (cynomolgus monkey)
T1 construct: also called His-cynoLIGHT
T1 chain: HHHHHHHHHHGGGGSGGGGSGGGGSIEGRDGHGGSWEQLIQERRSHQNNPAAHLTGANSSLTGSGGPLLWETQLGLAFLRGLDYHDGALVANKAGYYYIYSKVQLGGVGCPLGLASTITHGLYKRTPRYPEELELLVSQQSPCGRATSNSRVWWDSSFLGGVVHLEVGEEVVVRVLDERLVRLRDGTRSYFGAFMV

T2: His-human LIGHT (human)
T2 chain: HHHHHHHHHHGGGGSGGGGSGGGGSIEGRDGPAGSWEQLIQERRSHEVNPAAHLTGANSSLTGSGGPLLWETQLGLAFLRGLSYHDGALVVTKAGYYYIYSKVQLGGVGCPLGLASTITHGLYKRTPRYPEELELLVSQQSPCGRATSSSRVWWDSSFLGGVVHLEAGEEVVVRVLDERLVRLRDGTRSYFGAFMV

T3: His-mouse LIGHT (mouse)
T3 construct: also called His-musLIGHT
T3 chain: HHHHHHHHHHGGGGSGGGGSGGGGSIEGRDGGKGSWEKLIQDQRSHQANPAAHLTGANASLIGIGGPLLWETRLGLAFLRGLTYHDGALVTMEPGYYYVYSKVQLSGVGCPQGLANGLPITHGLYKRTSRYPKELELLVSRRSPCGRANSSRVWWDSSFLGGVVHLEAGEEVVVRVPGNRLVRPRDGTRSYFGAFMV


Legend:
[1] = target: T1, His-cynomolgus monkey LIGHT; test: ELISA, His-cynoLIGHT coated
His-human LIGHT [2] = target: T2, His-human LIGHT; test: cell-based or functional assay
His-human LIGHT [3] = target: T2, His-human LIGHT; test: cell-based or functional assay
His-human LIGHT [4] = target: T2, His-human LIGHT; test: ELISA, His-huLIGHT coated
His-mouse LIGHT = target: T3, His-mouse LIGHT; test: ELISA, His-musLIGHT coated
hFc-human LIGHT [5] = target: T4, hFc-human LIGHT (human); test: competition ELISA, LTβR-His coated, hFc-huLIGHT added
T4 construct: also called hFc-huLIGHT

[6] = target: T5, LIGHT on the surface of HEK293-LIGHT stable cells (human, UniProt O43557 1-240); test: cell-based or functional assay
His-human LIGHT [7] = target: T2, His-human LIGHT; test: ELISA, His-huLIGHT coated
[8] = target: T5, LIGHT on the surface of HEK293-LIGHT …; test: cell-based or functional assay; remark: listed apart in the source
hFc-human LIGHT [9] = target: T4, hFc-human LIGHT; test: competition ELISA, LTβR-His coated, hFc-huLIGHT added; remark: listed apart in the source
His-human LIGHT [10] = target: T2, His-human LIGHT; test: cell-based or functional assay
His-human LIGHT [11] = target: T2, His-human LIGHT; test: cell-based or functional assay
[12] = target: T1, His-cynomolgus monkey LIGHT; test: ELISA, His-cynoLIGHT coated
His-human LIGHT [13] = target: T2, His-human LIGHT; test: SPR, Biacore 8K, antibody on CM5 chip
His-human LIGHT [14] = target: T2, His-human LIGHT; test: cell-based or functional assay
His-human LIGHT [15] = target: T2, His-human LIGHT; test: ELISA, His-huLIGHT coated
[16] = target: T1, His-cynomolgus monkey LIGHT; test: ELISA, His-cynoLIGHT coated
[17] = target: T5, LIGHT on the surface of HEK293-LIGHT …; test: cell-based or functional assay; remark: listed apart in the source
hFc-human LIGHT [18] = target: T4, hFc-human LIGHT; test: competition ELISA, LTβR-His coated, hFc-huLIGHT added; remark: listed apart in the source
hFc-human LIGHT [19] = target: T4, hFc-human LIGHT; test: competition ELISA, LTβR-His coated, hFc-huLIGHT 1 µg/ml
His-human LIGHT [20] = target: T2, His-human LIGHT; test: cell-based or functional assay
His-human LIGHT [21] = target: T2, His-human LIGHT; test: cell-based or functional assay
His-human LIGHT [22] = target: T2, His-human LIGHT; test: cell-based or functional assay
hFc-human LIGHT [23] = target: T4, hFc-human LIGHT; test: competition ELISA, HVEM-His coated, hFc-huLIGHT 1 µg/ml

Row | Binder | EC50 [1] | IC50, LTβR NF-κB luciferase reporter, free LIGHT (His-human LIGHT [2]) | IC50, HVEM NF-κB luciferase reporter, free LIGHT (His-human LIGHT [3]) | EC50 (His-human LIGHT [4]) | binding result (His-mouse LIGHT) | IC50 (hFc-human LIGHT [5]) | IC50, LTβR NF-κB luciferase reporter, HEK293-LIGHT cells [6] | binding result [12] | Kd (His-human LIGHT [13]) | koff (His-human LIGHT [13]) | kon (His-human LIGHT [13]) | IC50, HVEM NF-κB luciferase reporter (293T-HVEM-NF-κB-Luc), free LIGHT (His-human LIGHT [14]) | EC50 (His-human LIGHT [15]) | further results
1 | hum_LT-m58-2 (antibody, human IgG4, V domains shown, humanized from LT-m58) VH: QVQLVQSGAEVKKPGASVKVSCKASGYTFIDHIMNWVRKAPGQGLEWIGRIYPVSGETNYNQKFMGRVTFTVDRSTSTVYMELSSLRSEDTAVYYCGRGSYYWNAMDYWGQGTLVTVSS VL: EIVMTQSPATLSVSPGERATLSCKASQSVDFDGDSYMNWYQQKPGQAPRLLIYSASNLESGIPARFSGSGSGTEFTLTISSLQSEDFAVYYCQQSIEDPWTFGQGTKVEIK | – | – | – | – | – | – | – | – | – | – | – | – | – | EC50 (His-human LIGHT [7]): 15.4 pM; IC50, LTβR NF-κB luciferase reporter, HEK293-LIGHT cells [8]: 5910 pM; IC50 (hFc-human LIGHT [9]): 258 pM; IC50, HVEM NF-κB luciferase reporter, free LIGHT (His-human LIGHT [10]): 199 pM; IC50, LTβR NF-κB luciferase reporter, free LIGHT (His-human LIGHT [11]): 135 pM
2 | LT-m31 (antibody, human IgG4, V domains shown) VH: QIQLLQSGPELEKPGETVKISCKASGYTFTNYGMNWVKQAPGKGLKWMGWINTYTGEPTYADDFKGRFAFSLETSASTAYLQINNLKNEDTATYFCARDNWDGKGMDYWGQGTSVTVSS VL: DIVLTQSPKFMSTSVGDRVSITCKASQDVDTAVAWYQQKPGHSPKLLLYWASTRHTGVPDRFTGSGSGTDFTLTISNVQSEDLADYFCHQYGSYPLTFGAGTKLELK | – | – | – | – | – | – | – | binds | 39.5 pM | 4.03e-05 s⁻¹ | 1.02e+06 M⁻¹ s⁻¹ | 0.105 µg/mL | 0.0256 µg/mL | –
3 | LT-m37 (antibody, human IgG4, V domains shown) VH: QVQLKQSGAELVRPGTSVKVSCKASGYSFTGYFINWVKQSHGKSLEWIGRIYPYNVNTFYNQNFKGRATLTADKSSSTAHMELLSLTSEDSAVYYCGRGTHYYGSSGAMDYWGQGTSVTVSS VL: DILLTQSHKFMSTSVGDRVSITCKASQNVGTAVAWYQQKPGQSPKLLIYSASNRYTGVPDRFTGSGSGTDFTLTISNMQSEDLADYFCQQYSSYPYTFGGGTKLEIK | – | – | – | – | – | – | – | – | – | – | – | 0.264 µg/mL | 0.0774 µg/mL | EC50 [16]: 157 pM; IC50, LTβR NF-κB luciferase reporter, HEK293-LIGHT cells [17]: 2280 pM; IC50 (hFc-human LIGHT [18]): 866 pM; IC50 ratio (IC50 of the antibody / IC50 of F19) (hFc-human LIGHT [19]): 0.301; IC50, LTβR NF-κB luciferase reporter, free LIGHT (His-human LIGHT [20]): 257 pM; IC50, HVEM NF-κB luciferase reporter, free LIGHT (His-human LIGHT [21]): 402 pM; IC50, LIGHT induced MMP-9 production in BEAS-2B bronchial epithelial cells (His-human LIGHT [22]): 0.359 µg/mL; IC50 ratio (IC50 of the antibody / IC50 of F19) (hFc-human LIGHT [23]): 0.435
4 | LT-m33 (antibody, human IgG4, V domains shown) VH: QVQLKQSGAELVKPGASVRLSCKTSGYTFTNYYVYWVKQRPGQGLEWIGEINPTNGDPNFNEKFKSKATLTVDKSSSTAYMHLSSLTSEDSAVYYCTRSNWDYGNAMDFWGQGTSVTVSS VL: DIVMTQSPASLAVSLGQRATISCKASQSVDFDGDGYMNWYQQKPGQPPKLLIYKASHLDSGIPARFSGSGSGTDFTLNIHPVEEEDAATYYCQQSIEDPLTFGDGTRLEIK | – | – | – | – | – | – | – | binds | 23.5 pM | 4.07e-05 s⁻¹ | 1.73e+06 M⁻¹ s⁻¹ | 0.207 µg/mL | 0.0221 µg/mL | –

Further lines, with some results ahead:

Row | EC50 [1] | IC50, LTβR NF-κB luciferase reporter, free LIGHT (His-human LIGHT [2]) | IC50, HVEM NF-κB luciferase reporter, free LIGHT (His-human LIGHT [3]) | EC50 (His-human LIGHT [4]) | binding result (His-mouse LIGHT) | IC50 (hFc-human LIGHT [5]) | IC50, LTβR NF-κB luciferase reporter, HEK293-LIGHT cells [6] | binding result [12] | Kd (His-human LIGHT [13]) | koff (His-human LIGHT [13]) | kon (His-human LIGHT [13]) | IC50, HVEM NF-κB luciferase reporter (293T-HVEM-NF-κB-Luc), free LIGHT (His-human LIGHT [14]) | EC50 (His-human LIGHT [15]) | Binder | further results
5 | 8.9 pM | 649 pM | 330 pM | 12.3 pM | no binding | 274 pM | 4240 pM | – | – | – | – | – | – | hum_LT-m85-1 (antibody, human IgG4, V domains shown, humanized from LT-m85) VH: QVQLVQSGAEVKKPGASVKVSCKASGYTFTSYNVHWVRQAPGQGLEWIGAVYPGNGDTSYNQKFKGRATLTADKSTSTVYMELSSLRSEDTAVYYCARGSYYYTSSYFDHWGQGTLVTVSS VL: EIVLTQSPATLSVSPGERATLSCKASQSVDFDGDSYMNWYQQKPGQPPRLLIYTASNLESGIPARFSGSGSGTEFTLTISSLQSEDFAVYYCQQSYEDPFTFGQGTKLEIK | –
6 | 3.3 pM | 252 pM | 454 pM | 12.7 pM | no binding | 308 pM | 2560 pM | – | – | – | – | – | – | hum_LT-m85-4 (antibody, human IgG4, V domains shown, humanized from LT-m85) VH: QVQLVQSGAEVKKPGASVKVSCKASGYTFTSYNVHWVRQAPGQGLEWIGAVYPGNGDTSYNQKFKGRATLTADKSTSTAYMELSSLRSEDTAVYYCARGSYYYTSSYFDHWGQGTLVTVSS VL: EIVMTQSPATLSVSPGERATLSCKASQSVDFDGDSYMNWYQQKPGQAPRLLIYTASNLESGIPARFSGSGSGTEFTLTISSLQSEDFAVYYCQQSYEDPFTFGQGTKLEIK | –
